Reference: PMC8184817, “Transmission of light signals from the light-oxygen-voltage core via the hydrophobic region of the β-sheet surface in aureochrome-1” (Scientific Reports, 2021)

B1: Photozipper (PZ), N-terminally truncated aureochrome-1 of Vaucheria frigida, wild type [Vaucheria frigida] / itself (parent)
chain: GSISSELTEAQKVERRERNREHAKRSRVRKKFLLESLQQSVNELNHENNSLKESIREHLGPRGDSLIAQSSPEADTLLTDNPSKANRILEDPDYSLVKALQMAQQNFVITDASLPDNPIVYASRGFLTLTGYSLDQILGRNCRFLQGPETDPRAVDKIRNAITKGVDTSVCLLNYRQDGTTFWNLFFVAGLRDSKGNIVNYVGVQSKVSEDYAKLLVNEQNIEYKGVRTSNMLRRK

Variants of: B1
Experiment: DLS
Details: with itself

Variant	hydrodynamic size (D (dark) state) [nm]	hydrodynamic size (L (light) state) [nm]
GSISSELTEAQKVERRERNREHAKRSRVRKKFLLESLQQSVNELNHENNSLKESIREHLGPRGDSLIAQSSPEADTLLTDNPSKANRIAEDPDYSAVKAAQMAQQNFVITDASLPDNPIVYASRGFLTLTGYSLDQILGRNCRFLQGPETDPRAVDKIRNAITKGVDTSVCLLNYRQDGTTFWNLFFVAGLRDSKGNIVNYVGVQSKVSEDYAKLLVNEQNIEYKGVRTSNMLRRK [chain 1 L89A L96A L100A]	3.05	3.86
GSISSELTEAQKVERRERNREHAKRSRVRKKFLLESLQQSVNELNHENNSLKESIREHLGPRGDSLIAQSSPEADTLLTDNPSKANRILEDPDYSLVKAAQMAQQNFVITDASLPDNPIVYASRGFLTLTGYSLDQILGRNCRFLQGPETDPRAVDKIRNAITKGVDTSVCLLNYRQDGTTFWNLFFVAGLRDSKGNIVNYVGVQSKVSEDYAKLLVNEQNIEYKGVRTSNMLRRK [chain 1 L100A]	3.18	3.88
